Reference: US11166479B2, “Feedstuffs for aquaculture comprising stearidonic acid” (COMMONWEALTH SCIENTIFIC AND INDUSTRIAL RESEARCH ORGANISATION, priority 2005, dated 2021)

Test system: yeast strain S288Cα
Assay: Heterologous expression of E. plantagineum Δ6-desaturase gene in yeast, conversion of fed fatty acids
Format: cell-based
Settings: 20° C., 2-3 days
Method: Expression experiments in yeast were carried out to confirm that the cloned E. platangineum gene (cDNA sequence provided as SEQ ID NO:25) encoded a Δ6-desaturase enzyme. The gene fragment was inserted as an XbaI-SacI fragment into the […] sites of the yeast expression vector pSOS (Stratagene) containing the constitutive ADH1 promoter, resulting in plasmid pXZP271. This was transformed into yeast strain S288Cα by a heat shock method and transformant colonies selected by plating on minimal media plates. For the analysis of enzyme activity, 2 mL yeast clonal cultures were grown to an O.D.600 of 1.0 in yeast minimal medium in the presence of 0.1% NP-40 at 30° C. with shaking. Precursor free-fatty acids, either linoleic or linolenic acid as 25 mM stocks in ethanol, were added so that the final concentration of fatty acid was 0.5 mM. The cultures were transferred to 20° C. and grown for 2-3 days with shaking. Yeast cells were harvested by repeated centrifugation and washing first with 0.1% NP-40, then 0.05% NP-40 and finally with water. Fatty acids were extracted and analyzed. The peak identities of fatty acids were confirmed by GC-MS.

B1: EplD6Des: Δ6 desaturase from Echium plantagineum, polypeptide of 438 amino acid residues, expressed in yeast from plasmid pXZP271 (protein, listed as Echium plantagineum)
chain: MANAIKKYITAEELKKHDKAGDLWISIQGKIYDVSDWLKDHPGGNFPLLSLAGQEVTDAFVAFHSGTTWKLLEKFFTGYYLKDYSVSEVSKDYRKLVFEFNKMGLFDKKGHIVLVTVLFIAMLFGMSVYGVLFCEGVLVHLLAGGLMGFVWIQSGWIGHDAGHYIVMPDARLNKLMGIVAANCLSGISIGWWKWNHNAHHIACNSLDYDPDLQYIPFLVVSSKLFSSLTSHFYEKKLTFDSLSRFFVSHQHWTFYPVMCMARVNMFVQSLIMLLTKRNVFYRSQELLGLVVFWIWYPLLVSCLPNWGERVMFVVASLSVTGMQQVQFSLNHFSSSVYVGQPKGNDWFEKQTCGTLDISCPSWMDWFHGGLQFQVEHHLFPKLPRCHLRKISPFVMELCKKHNLSYNCASFSEANNMTLRTLRDTALQARDLTKPLPKNLVWEALNTHG
LA converted to GLA (0.5 mM linoleic acid fed): Around 2.9%
ALA converted to SDA (0.5 mM linolenic acid fed): ~2.3%
